Assay [1] has as its target T1, human DR4 (Death Receptor 4), cell surface expressed on human tumor cell lines (human, UniProt O00220 24-468).
T1 construct: also called TNFRSF10A; TRAIL-R1
T1 sequence: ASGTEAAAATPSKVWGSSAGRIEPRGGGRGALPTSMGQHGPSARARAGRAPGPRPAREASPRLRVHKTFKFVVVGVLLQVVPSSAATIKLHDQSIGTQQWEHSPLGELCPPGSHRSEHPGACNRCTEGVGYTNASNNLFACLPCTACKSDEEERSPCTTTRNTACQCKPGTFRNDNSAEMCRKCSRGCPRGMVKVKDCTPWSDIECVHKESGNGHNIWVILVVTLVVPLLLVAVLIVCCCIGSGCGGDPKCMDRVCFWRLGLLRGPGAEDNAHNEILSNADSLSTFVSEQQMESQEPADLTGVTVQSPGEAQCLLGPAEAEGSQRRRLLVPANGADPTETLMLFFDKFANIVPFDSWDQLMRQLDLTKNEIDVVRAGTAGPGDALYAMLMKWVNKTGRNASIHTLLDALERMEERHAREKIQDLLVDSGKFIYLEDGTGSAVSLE
In words: flow cytometry, MDA-MB-231 cells, n = 2. On the technique in general: A flow cytometer gives signals particle by particle.

Assay [2] deals with T2, human FAPα (Fibroblast activation protein alpha), cell surface expressed (human, UniProt Q12884 1-760).
T2 construct: Endogenous on human lung fibroblasts and CAFs
T2 sequence: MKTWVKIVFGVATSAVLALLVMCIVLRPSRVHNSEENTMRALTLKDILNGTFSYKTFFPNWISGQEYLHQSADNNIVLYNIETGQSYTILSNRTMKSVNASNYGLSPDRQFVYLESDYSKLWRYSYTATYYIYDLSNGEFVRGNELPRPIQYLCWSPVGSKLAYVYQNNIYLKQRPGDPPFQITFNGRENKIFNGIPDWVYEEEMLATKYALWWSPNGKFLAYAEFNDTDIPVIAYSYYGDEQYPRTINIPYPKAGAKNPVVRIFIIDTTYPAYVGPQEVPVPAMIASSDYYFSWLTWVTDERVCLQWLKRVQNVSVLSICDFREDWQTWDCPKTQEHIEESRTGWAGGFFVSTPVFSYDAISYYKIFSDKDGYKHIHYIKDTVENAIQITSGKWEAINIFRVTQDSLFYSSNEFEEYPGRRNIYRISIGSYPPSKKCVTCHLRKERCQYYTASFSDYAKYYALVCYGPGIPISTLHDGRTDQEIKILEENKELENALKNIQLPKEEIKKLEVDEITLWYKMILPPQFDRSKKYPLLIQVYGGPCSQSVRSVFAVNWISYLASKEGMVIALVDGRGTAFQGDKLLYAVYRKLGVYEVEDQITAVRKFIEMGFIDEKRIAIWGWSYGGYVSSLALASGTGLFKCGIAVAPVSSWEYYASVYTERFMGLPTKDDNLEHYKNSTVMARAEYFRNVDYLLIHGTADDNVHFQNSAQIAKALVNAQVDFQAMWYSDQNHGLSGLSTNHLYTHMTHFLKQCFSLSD
In words: flow cytometry, Expi293F cells expressing human FAPα, n = 3. The procedure:
(§1) Binding of BisG1-FAPα-FERL/DR4-FERR, BisG1-FAPα-FEAL/b12-FEAR and IgG1-FAPα-FERL to FAPα of species commonly used for nonclinical toxicology studies was assessed by flow cytometry using Expi293F cells transiently expressing FAPα from different animal species. IgG1-b12 was included as negative control.
(§2) Expi293F cells expressing recombinant FAPα from various species (human, cynomolgus monkey, dog, pig, rat or mouse) were seeded (20,000 cells/well) in 96-Well round bottom plates (Greiner Bio-one, Cat #650101). Antibody dilutions were prepared using FACS buffer, consisting of PBS (Capricorn Scientific, Cat #PBS-10XA, diluted to 1×PBS in distilled water)+1% BSA (Roche, Cat #10735086001)+0.02% Sodium Azide (Bio-World, Cat #41920044-3). Plates were centrifuged, supernatant was removed, and cells were resuspended in 100 μL of antibody dilutions (concentration range 30-0.00017 μg/mL with three-fold serial dilutions using FACS buffer) of BisG1-FAPα-FERL/DR4-FERR, BisG1-FAPα-FEAL/b12-FEAR, IgG1-FAPα-FERL and IgG1-b12 and incubated for 30 min at 4° C. […] After 30 min incubation at 4° C., cells were washed with FACS buffer and resuspended in FACS buffer supplemented with TO-PRO-3 Iodide viability marker (Invitrogen, Cat #T3605, diluted 1:4,000). Antibody binding to viable cells (gMFI of PE on TO-PRO-3 negative cells) was analyzed by flow cytometry on a FACS Celesta and FACS_Diva software (first two experiments) or iQue® 3 and FlowJo software (last experiment). gMFI was determined and visualized using GraphPad Prism. Binding curves were analyzed using nonlinear regression analysis. The concentration (pg/mL) at which 50% of the maximal effect was observed (EC₅₀) was derived from the fitted curves.

In assay [3] the target is T1, human DR4 (Death Receptor 4), cell …. In words: flow cytometry, DLD-1 cells, n = 1.
For assay [4] the target is unchanged. In words: flow cytometry, PANC-1 cells, n = 3.
Assay [5] addresses T2, human FAPα (Fibroblast activation …). In words: flow cytometry, Expi293F cells expressing human FAPα, n = 2. On the procedure:
as §1, §2

Assay [6] addresses T1, human DR4 (Death Receptor 4), cell …. In words: flow cytometry, A549 cells, n = 3.
Assay [7] has the same target. In words: flow cytometry, HCT-116 cells, n = 1.
Assay [8] shares this target. In words: flow cytometry, A549 cells, average ± SEM.

B1: BisG1-FAPα-FERL/DR4-FERR (bispecific antibody, human IgG1, kappa, lambda)
heavy 1: EVQLLESGGGLVQPGGSPRLSCEASGFTFSSYALSWVRQAPGKGLEWVSAISGSGGGRYYADSVKGRFTISRDNSKNTLFLQMNSLRAEDTAVYYCAKEGYSSSGTYWDHWGQGTLVTVSSASTKGPSVFPLAPSSKSTSGGTAALGCLVKDYFPEPVTVSWNSGALTSGVHTFPAVLQSSGLYSLSSVVTVPSSSLGTQTYICNVNHKPSNTKVDKRVEPKSCDKTHTCPPCPAPEFERGPSVFLFPPKPKDTLMISRTPEVTCVVVDVSHEDPEVKFNWYVDGVEVHNAKTKPREEQYNSTYRVVSVLTVLHQDWLNGKEYKCKVSNKALPAPIEKTISKAKGQPREPQVYTLPPSREEMTKNQVSLTCLVKGFYPSDIAVEWESNGQPENNYKTTPPVLDSDGSFLLYSKLTVDKSRWQQGNVFSCSVMHEALHNHYTQKSLSLSPG
light 1: AIQMTQSPSSVSASVGDRVTITCRASQGVSSWLAWYQQKPGRAPKLLIYVASTLQSGVPSRFSGSGSGTDFTLTINSLQPEDFATYYCQQANSFPPTFGQGTRLEMKRTVAAPSVFIFPPSDEQLKSGTASVVCLLNNFYPREAKVQWKVDNALQSGNSQESVTEQDSKDSTYSLSSTLTLSKADYEKHKVYACEVTHQGLSSPVTKSFNRGEC
heavy 2: QVQLQESGPGLVKPSGTLSLTCAVSGGSISSYSWWSWIRQPPGKGLEWIGELYHSGSTNYNPSLKSRVTISVDKSKNQFSLKLRSVTAADTAVYYCVRGVATIDYWGQGTLVTVSSASTKGPSVFPLAPSSKSTSGGTAALGCLVKDYFPEPVTVSWNSGALTSGVHTFPAVLQSSGLYSLSSVVTVPSSSLGTQTYICNVNHKPSNTKVDKRVEPKSCDKTHTCPPCPAPEFERGPSVFLFPPKPKDTLMISRTPEVTCVVVDVSHEDPEVKFNWYVDGVEVHNAKTKPREEQYNSTYRVVSVLTVLHQDWLNGKEYKCKVSNKALPAPIEKTISKAKGQPREPQVYTLPPSREEMTKNQVSLTCLVKGFYPSDIAVEWESNGQPENNYKTTPPVLDSDGSFFLYSRLTVDKSRWQQGNVFSCSVMHEALHNHYTQKSLSLSPG
light 2: QSALTQPPSASGSPGQSVTISCTGTSSDVGGYNFVSWYQQDPGKAPKLLIYEVTKRPSGVPDRFSGSKSGNTASLTVSGLQAEDEADYYCSSYAGSNNVMFGGGTKLTVLGQPKAAPSVTLFPPSSEELQANKATLVCLISDFYPGAVTVAWKADSSPVKAGVETTTPSKQSNNKYAASSYLSLTPEQWKSHRSYSCQVTHEGSTVEKTVAPTECS
notes: Human IgG1 bispecific made by controlled Fab-arm exchange of IgG1-FAPα-FERL and IgG1-DR4-FERR; monovalent for FAPα and for DR4; also called GEN1057
Take B1: the concentration for a half-maximal effect (EC50) – broadly, the midpoint of the concentration-response curve – worked out at 1.24 µg/mL in assay [1]; 0.23 µg/mL in assay [2]; 0.75 µg/mL in assay [3]; 1.4 µg/mL in assay [4]; 0.32 µg/mL in assay [5]; 0.87 µg/mL in assay [6]. For the same molecule, the half-maximal effective concentration (EC50) was found to be 0.48 µg/mL in assay [7] and 0.89 µg/mL in assay [8].
